Values of other authors, collected in publication PMC2751630.

Key:
PKA RIIα (Homo sapiens) = PKA RIIα (Homo sapiens) (UniProt P13861)
PKA RIIβ (Homo sapiens) = PKA RIIβ (Homo sapiens) (UniProt P31323)
PKA RI (Homo sapiens) = PKA RI (Homo sapiens) (UniProt P10644)
Chain of PKA RI (Homo sapiens) (P10644 whole entry): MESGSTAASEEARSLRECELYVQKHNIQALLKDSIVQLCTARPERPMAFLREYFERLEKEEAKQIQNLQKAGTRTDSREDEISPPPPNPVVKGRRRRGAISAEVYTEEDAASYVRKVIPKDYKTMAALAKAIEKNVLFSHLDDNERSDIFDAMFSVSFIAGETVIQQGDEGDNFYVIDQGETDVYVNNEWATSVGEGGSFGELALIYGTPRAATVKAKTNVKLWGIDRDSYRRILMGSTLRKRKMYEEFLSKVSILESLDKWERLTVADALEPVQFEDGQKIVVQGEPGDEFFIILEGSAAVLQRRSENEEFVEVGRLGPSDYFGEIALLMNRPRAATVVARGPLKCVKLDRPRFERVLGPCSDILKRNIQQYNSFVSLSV

Chain of AKAP79 (P24588 whole entry): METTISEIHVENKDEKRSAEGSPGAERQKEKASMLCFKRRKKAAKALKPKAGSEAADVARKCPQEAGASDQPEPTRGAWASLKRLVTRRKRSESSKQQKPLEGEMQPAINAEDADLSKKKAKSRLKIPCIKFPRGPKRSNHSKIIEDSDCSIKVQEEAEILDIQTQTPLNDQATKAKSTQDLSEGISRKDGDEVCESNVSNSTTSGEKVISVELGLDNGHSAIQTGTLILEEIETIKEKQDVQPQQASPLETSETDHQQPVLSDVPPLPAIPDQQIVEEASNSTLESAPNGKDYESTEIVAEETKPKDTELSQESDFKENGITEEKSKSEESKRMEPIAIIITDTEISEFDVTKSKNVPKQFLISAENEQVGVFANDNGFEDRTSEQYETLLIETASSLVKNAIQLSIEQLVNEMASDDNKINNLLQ
Chain of PKA RIIβ (Homo sapiens) (P31323 whole entry): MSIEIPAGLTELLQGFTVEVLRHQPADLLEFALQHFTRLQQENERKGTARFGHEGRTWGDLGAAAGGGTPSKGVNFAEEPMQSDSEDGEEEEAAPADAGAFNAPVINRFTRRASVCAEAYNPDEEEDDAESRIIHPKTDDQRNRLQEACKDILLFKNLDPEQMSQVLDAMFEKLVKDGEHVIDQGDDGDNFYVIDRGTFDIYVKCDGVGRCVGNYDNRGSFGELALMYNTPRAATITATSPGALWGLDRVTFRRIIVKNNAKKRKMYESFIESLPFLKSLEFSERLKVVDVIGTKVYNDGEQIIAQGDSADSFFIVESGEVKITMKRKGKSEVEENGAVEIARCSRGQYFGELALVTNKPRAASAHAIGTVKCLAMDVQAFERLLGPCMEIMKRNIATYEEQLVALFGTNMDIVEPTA
Chain of PKA RIIα (Homo sapiens) (P13861 2-404): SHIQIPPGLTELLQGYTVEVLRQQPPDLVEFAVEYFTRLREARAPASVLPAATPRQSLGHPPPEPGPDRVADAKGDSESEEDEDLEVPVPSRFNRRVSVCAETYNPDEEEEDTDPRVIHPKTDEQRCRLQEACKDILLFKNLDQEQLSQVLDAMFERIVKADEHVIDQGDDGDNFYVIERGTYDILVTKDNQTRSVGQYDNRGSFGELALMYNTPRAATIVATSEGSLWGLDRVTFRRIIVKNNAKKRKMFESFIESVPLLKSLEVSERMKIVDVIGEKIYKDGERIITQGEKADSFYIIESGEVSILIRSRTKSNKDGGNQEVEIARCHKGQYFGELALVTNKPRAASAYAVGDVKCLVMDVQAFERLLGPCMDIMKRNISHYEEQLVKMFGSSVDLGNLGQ

Kd (PKA RIIα (Homo sapiens)): 1.5 nM
Kd (PKA RIIβ (Homo sapiens)): 4.5 nM
Kd (PKA RI (Homo sapiens)): > 1000 nM
Substance: AKAP79 (from UniProt P24588)
